Experimental data taken from article PMC4401514.

Biological target: activated Cry1Ac toxin of Bacillus thuringiensis subsp. kurstaki HD73 (Bacillus thuringiensis subsp. kurstaki HD73) (UniProt P05068)
Assay: SPR; BIAcore 3000; Cry1Ac immobilised on CM5 chip by amine coupling; HaALP1f injected at 31.25-500 nM; HBS (10 mM HEPES, 150 mM NaCl, 0.005% Tween20, pH 7.4), 40 ul/min; 1:1 Langmuir model; apparent rate constants

Substance: HaALP1f, his-tagged fragment of alkaline phosphatase HaALP1 from Helicoverpa armigera (from UniProt B4Z1D6 192-451) (domain or fragment)
- Kd: 7.58 nM
- koff: 0.00248 s⁻¹
- kon: 327000 M⁻¹ s⁻¹
